Molecular target: the molecule itself
Test: SDS-PAGE of unboiled samples; oligomeric state in SDS-PAGE, samples not boiled, without biotin, with or without 0.7 M β-mercaptoethanol

B1: 8-aa-loop-H127C mutein (streptavidin) (natural protein, UniProt P22629 25-183, looked up)
chain: DPSKDSKAQVSAAEAGITGTWYNQLGSTFIVTAGADGALTGTYESAVGNAESRYVLTGRYDSAPATDGSGTALGWTVAWKNNYRNAHSATTWSGQYVGGAEARINTQWLLTSGDSSNGSDGSTLVGCDTFTKVKPSAASIDAAKKAGVNNGNPLDAVQQ
modifications: disulfide bond between the Cys-127 residues of adjacent subunits
notes: streptavidin; loop7-8 (residues 114-121) replaced and H127C added; SDS-PAGE was done without biotin; also called MH127C; 8-aa-loop-H127 mutein; source: B. subtilis WB800, secreted, purified from culture supernatant (biotin-agarose)
With B1 the “stoichiometry N” value was 4.

From article PMC3334968, “Development of a Tetrameric Streptavidin Mutein with Reversible Biotin Binding Capability: Engineering a Mobile Loop as an Exit Door for Biotin” (PLoS ONE, 2012)
